Test results published in patent US20260242735A1.

Key:
Assay in all cases: alanine scan, flow cytometry, HEK293-T
human CD33 C101A (human) = human CD33 C101A (human) (UniProt P20138)
human CD33 C169A (human) = human CD33 C169A (human) (UniProt P20138)
human CD33 D79A (human) = human CD33 D79A (human) (UniProt P20138)
human CD33 F118A (human) = human CD33 F118A (human) (UniProt P20138)
human CD33 G114A (human) = human CD33 G114A (human) (UniProt P20138)
human CD33 G188A (human) = human CD33 G188A (human) (UniProt P20138)
human CD33 G88A (human) = human CD33 G88A (human) (UniProt P20138)
human CD33 H137A (human) = human CD33 H137A (human) (UniProt P20138)
human CD33 H143A (human) = human CD33 H143A (human) (UniProt P20138)
human CD33 H157A (human) = human CD33 H157A (human) (UniProt P20138)
human CD33 I149A (human) = human CD33 I149A (human) (UniProt P20138)
human CD33 I67A (human) = human CD33 I67A (human) (UniProt P20138)
human CD33 L103A (human) = human CD33 L103A (human) (UniProt P20138)
human CD33 L187A (human) = human CD33 L187A (human) (UniProt P20138)
human CD33 L78A (human) = human CD33 L78A (human) (UniProt P20138)
human CD33 L92A (human) = human CD33 L92A (human) (UniProt P20138)
human CD33 M120A (human) = human CD33 M120A (human) (UniProt P20138)
human CD33 N53A (human) = human CD33 N53A (human) (UniProt P20138)
human CD33 P145A (human) = human CD33 P145A (human) (UniProt P20138)
human CD33 P155A (human) = human CD33 P155A (human) (UniProt P20138)
human CD33 P175A (human) = human CD33 P175A (human) (UniProt P20138)
human CD33 P184A (human) = human CD33 P184A (human) (UniProt P20138)
human CD33 P189A (human) = human CD33 P189A (human) (UniProt P20138)
human CD33 P46A (human) = human CD33 P46A (human) (UniProt P20138)
human CD33 P72A (human) = human CD33 P72A (human) (UniProt P20138)
human CD33 P96A (human) = human CD33 P96A (human) (UniProt P20138)
human CD33 Q80A (human) = human CD33 Q80A (human) (UniProt P20138)
human CD33 Q87A (human) = human CD33 Q87A (human) (UniProt P20138)
human CD33 R119A (human) = human CD33 R119A (human) (UniProt P20138)
human CD33 R122A (human) = human CD33 R122A (human) (UniProt P20138)
human CD33 R62A (human) = human CD33 R62A (human) (UniProt P20138)
human CD33 S128A (human) = human CD33 S128A (human) (UniProt P20138)
human CD33 S166A (human) = human CD33 S166A (human) (UniProt P20138)
human CD33 S97A (human) = human CD33 S97A (human) (UniProt P20138)
human CD33 T125A (human) = human CD33 T125A (human) (UniProt P20138)
human CD33 T139A (human) = human CD33 T139A (human) (UniProt P20138)
human CD33 T142A (human) = human CD33 T142A (human) (UniProt P20138)
human CD33 T185A (human) = human CD33 T185A (human) (UniProt P20138)
human CD33 T192A (human) = human CD33 T192A (human) (UniProt P20138)
human CD33 V136A (human) = human CD33 V136A (human) (UniProt P20138)
human CD33 V138A (human) = human CD33 V138A (human) (UniProt P20138)
human CD33 V73A (human) = human CD33 V73A (human) (UniProt P20138)
human CD33 V82A (human) = human CD33 V82A (human) (UniProt P20138)
human CD33 Y50A (human) = human CD33 Y50A (human) (UniProt P20138)
human CD33 Y59A (human) = human CD33 Y59A (human) (UniProt P20138)

Chain of human CD33 S166A (human) (P20138 18-364 S166A limits assumed): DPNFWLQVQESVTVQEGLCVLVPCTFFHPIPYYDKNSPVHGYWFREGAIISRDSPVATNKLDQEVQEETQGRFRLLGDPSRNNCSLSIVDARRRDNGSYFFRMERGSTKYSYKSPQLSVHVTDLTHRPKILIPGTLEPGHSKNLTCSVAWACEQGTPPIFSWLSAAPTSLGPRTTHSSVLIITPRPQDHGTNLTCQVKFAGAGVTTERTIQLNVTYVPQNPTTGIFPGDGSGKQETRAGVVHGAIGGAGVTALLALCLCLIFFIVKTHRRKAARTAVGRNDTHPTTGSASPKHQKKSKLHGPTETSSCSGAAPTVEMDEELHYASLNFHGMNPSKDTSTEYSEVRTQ
Chain of human CD33 R62A (human) (P20138 18-364 R62A limits assumed): as the sequence (P20138 18-364 S166A limits assumed) above, with R45A, A149S counted along it
Chain of human CD33 P184A (human) (P20138 18-364 P184A limits assumed): as the sequence (P20138 18-364 S166A limits assumed) above, with A149S, P167A counted along it
Chain of human CD33 C169A (human) (P20138 18-364 C169A limits assumed): as the sequence (P20138 18-364 S166A limits assumed) above, with A149S, C152A counted along it
Chain of human CD33 D79A (human) (P20138 18-364 D79A limits assumed): as the sequence (P20138 18-364 S166A limits assumed) above, with D62A, A149S counted along it
Chain of human CD33 P145A (human) (P20138 18-364 P145A limits assumed): as the sequence (P20138 18-364 S166A limits assumed) above, with P128A, A149S counted along it
Chain of human CD33 T142A (human) (P20138 18-364 T142A limits assumed): as the sequence (P20138 18-364 S166A limits assumed) above, with T125A, A149S counted along it
Chain of human CD33 H143A (human) (P20138 18-364 H143A limits assumed): as the sequence (P20138 18-364 S166A limits assumed) above, with H126A, A149S counted along it
Chain of human CD33 L103A (human) (P20138 18-364 L103A limits assumed): as the sequence (P20138 18-364 S166A limits assumed) above, with L86A, A149S counted along it
Chain of human CD33 Q80A (human) (P20138 18-364 Q80A limits assumed): as the sequence (P20138 18-364 S166A limits assumed) above, with Q63A, A149S counted along it
Chain of human CD33 R122A (human) (P20138 18-364 R122A limits assumed): as the sequence (P20138 18-364 S166A limits assumed) above, with R105A, A149S counted along it
Chain of human CD33 T185A (human) (P20138 18-364 T185A limits assumed): as the sequence (P20138 18-364 S166A limits assumed) above, with A149S, T168A counted along it
Chain of human CD33 F118A (human) (P20138 18-364 F118A limits assumed): as the sequence (P20138 18-364 S166A limits assumed) above, with F101A, A149S counted along it
Chain of human CD33 I149A (human) (P20138 18-364 I149A limits assumed): as the sequence (P20138 18-364 S166A limits assumed) above, with I132A, A149S counted along it

Which Mean % WT Binding (human CD33 C101A (human)) does the source give for Refmab #7 (WM53) (antibody) here?
The Mean % WT Binding was 1.8 % WT binding.

What about the Mean % WT Binding (human CD33 C169A (human)) of the same substance?
The Mean % WT Binding was 90 % WT binding.

And the Mean % WT Binding (human CD33 D79A (human))?
The Mean % WT Binding was 83.5 % WT binding.

What about the Mean % WT Binding (human CD33 F118A (human)) of the same substance?
The Mean % WT Binding was 3.2 % WT binding.

And the Mean % WT Binding (human CD33 G114A (human))?
The Mean % WT Binding was 94.6 % WT binding.

And the Mean % WT Binding (human CD33 G188A (human))?
Its Mean % WT Binding is 127 % WT binding.

What about the Mean % WT Binding (human CD33 G88A (human)) of the same substance?
Its Mean % WT Binding is 115 % WT binding.

What about the Mean % WT Binding (human CD33 H137A (human)) of the same substance?
Its Mean % WT Binding is 114 % WT binding.

And the Mean % WT Binding (human CD33 H143A (human))?
The Mean % WT Binding was 112 % WT binding.

What about the Mean % WT Binding (human CD33 H157A (human)) of the same substance?
The Mean % WT Binding was 116 % WT binding.

What about the Mean % WT Binding (human CD33 I149A (human)) of the same substance?
Its Mean % WT Binding is 96.9 % WT binding.

And the Mean % WT Binding (human CD33 I67A (human))?
Its Mean % WT Binding is 135 % WT binding.

What about the Mean % WT Binding (human CD33 L103A (human)) of the same substance?
Its Mean % WT Binding is 109 % WT binding.

What about the Mean % WT Binding (human CD33 L187A (human)) of the same substance?
The Mean % WT Binding was 124 % WT binding.

What about the Mean % WT Binding (human CD33 L78A (human)) of the same substance?
Its Mean % WT Binding is 88.9 % WT binding.

And the Mean % WT Binding (human CD33 L92A (human))?
Its Mean % WT Binding is 89.9 % WT binding.

And the Mean % WT Binding (human CD33 M120A (human))?
The Mean % WT Binding was 92 % WT binding.

What about the Mean % WT Binding (human CD33 N53A (human)) of the same substance?
The Mean % WT Binding was 140 % WT binding.

And the Mean % WT Binding (human CD33 P145A (human))?
Its Mean % WT Binding is 102 % WT binding.

And the Mean % WT Binding (human CD33 P155A (human))?
Its Mean % WT Binding is 107 % WT binding.

What about the Mean % WT Binding (human CD33 P175A (human)) of the same substance?
Its Mean % WT Binding is 126 % WT binding.

What about the Mean % WT Binding (human CD33 P184A (human)) of the same substance?
The Mean % WT Binding was 106 % WT binding.

And the Mean % WT Binding (human CD33 P189A (human))?
Its Mean % WT Binding is 119 % WT binding.

And the Mean % WT Binding (human CD33 P46A (human))?
The Mean % WT Binding was 75.3 % WT binding.

What about the Mean % WT Binding (human CD33 P72A (human)) of the same substance?
The Mean % WT Binding was 114 % WT binding.

And the Mean % WT Binding (human CD33 P96A (human))?
Its Mean % WT Binding is 98.7 % WT binding.

What about the Mean % WT Binding (human CD33 Q80A (human)) of the same substance?
Its Mean % WT Binding is 124 % WT binding.

And the Mean % WT Binding (human CD33 Q87A (human))?
The Mean % WT Binding was 90.1 % WT binding.

And the Mean % WT Binding (human CD33 R119A (human))?
The Mean % WT Binding was 116 % WT binding.

And the Mean % WT Binding (human CD33 R122A (human))?
The Mean % WT Binding was 25.1 % WT binding.

And the Mean % WT Binding (human CD33 R62A (human))?
Its Mean % WT Binding is 114 % WT binding.

And the Mean % WT Binding (human CD33 S128A (human))?
The Mean % WT Binding was 179 % WT binding.

What about the Mean % WT Binding (human CD33 S166A (human)) of the same substance?
Its Mean % WT Binding is 108 % WT binding.

What about the Mean % WT Binding (human CD33 S97A (human)) of the same substance?
The Mean % WT Binding was 128 % WT binding.

What about the Mean % WT Binding (human CD33 T125A (human)) of the same substance?
The Mean % WT Binding was 91.3 % WT binding.

What about the Mean % WT Binding (human CD33 T139A (human)) of the same substance?
Its Mean % WT Binding is 121 % WT binding.

And the Mean % WT Binding (human CD33 T142A (human))?
Its Mean % WT Binding is 113 % WT binding.

What about the Mean % WT Binding (human CD33 T185A (human)) of the same substance?
The Mean % WT Binding was 106 % WT binding.

And the Mean % WT Binding (human CD33 T192A (human))?
The Mean % WT Binding was 102 % WT binding.

And the Mean % WT Binding (human CD33 V136A (human))?
The Mean % WT Binding was 85.9 % WT binding.

What about the Mean % WT Binding (human CD33 V138A (human)) of the same substance?
The Mean % WT Binding was 91 % WT binding.

What about the Mean % WT Binding (human CD33 V73A (human)) of the same substance?
The Mean % WT Binding was 113 % WT binding.

And the Mean % WT Binding (human CD33 V82A (human))?
The Mean % WT Binding was 108 % WT binding.

What about the Mean % WT Binding (human CD33 Y50A (human)) of the same substance?
The Mean % WT Binding was 1 % WT binding.

What about the Mean % WT Binding (human CD33 Y59A (human)) of the same substance?
The Mean % WT Binding was 127 % WT binding.
